In patent US20250250357A1 (NANJING ZAIMING PHARMACEUTICAL, published 2025):
Residue numbers refer to the chain shown, from its start.

Legend:
[1] = target: T1, human MSLN-FL-his protein (human, UniProt Q13421 296-580); assay: ELISA on coated antigen, antibody 10 nM
T1 construct: Made in HEK293E cells, purified on nickel column; it is put last here; also called human MSLN full-length protein; hMSLN-FL-his; not shown: His tag

[2] = target: T1, human MSLN-FL-his protein; assay: ELISA on coated antigen, antibody 0.001 nM
Description: (§1) The plate was sealed with a plastic film and incubated at 4° C. overnight. The next day, the plate was washed twice with PBST, and a blocking buffer [PBS+2% (w/w) BSA] was added for blocking at room temperature for 2 h. The blocking buffer was discarded, and a chimeric antibody or negative control antibody serially diluted from 100 nM was added at 50 μL/well. After incubation at 37° C. for 2 h, the plate was washed 3 times with PBST. […] After incubation at 37° C. for 2 h, the plate was washed 5 times with PBST. A TMB substrate was added at 50 μL/well for incubation at room temperature for 5-10 min, and then a stop solution (1.0 N HCl) was added at 50 μL/well.

[3] = target: T1, human MSLN-FL-his protein; assay: ELISA on coated antigen, antibody 0.1 nM
Description: as §1

[4] = target: T1, human MSLN-FL-his protein; assay: ELISA on coated antigen, antibody 0.01 nM
Description: as §1

[5] = target: T1, human MSLN-FL-his protein; assay: ELISA on coated antigen, no antibody (blank, column 'none')
Description: as §1

[6] = target: T1, human MSLN-FL-his protein; assay: ELISA on coated antigen, antibody 1 nM
Description: as §1

[7] = target: T1, human MSLN-FL-his protein; assay: ELISA on coated antigen, antibody 0.0001 nM
Description: as §1

[8] = target: T1, human MSLN-FL-his protein; assay: ELISA on coated antigen, antibody 100 nM
Description: as §1

T1 sequence (Q13421 other isoform, or with tags, fused parts or gaps): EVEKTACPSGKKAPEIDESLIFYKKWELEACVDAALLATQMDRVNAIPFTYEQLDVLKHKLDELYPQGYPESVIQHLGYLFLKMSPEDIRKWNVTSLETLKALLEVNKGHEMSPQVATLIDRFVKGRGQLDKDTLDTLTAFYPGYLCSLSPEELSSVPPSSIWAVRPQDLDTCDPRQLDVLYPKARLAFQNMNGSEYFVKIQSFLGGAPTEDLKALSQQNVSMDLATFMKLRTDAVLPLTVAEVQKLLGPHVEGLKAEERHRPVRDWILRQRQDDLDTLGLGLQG

B1: S009-F8-8.22 (antibody, human IgG1, kappa, V domains shown)
VH: EVQLQQSGPELVKPGASVKMSCKASGYTFTDYIIHWVKQSHGKSLEWIAYIFPNNGGTGYNQKFRGKATLTVNKSSSTAYMELRSLTSEDSAVYYCARWRLRQYFDVWGTGTTVTVSS
VL: DIVMTQSQKFMSTIVGDRVSITCKASQNVGTAVAWYQQKPGQSPKLLIYSASNRYTGVPDRFTGSGSGTDFTLTISNMQSEDLADYFCQQYSSYPLTFGGGTKLEIKR
notes: Human-murine chimeric antibody, human IgG1 heavy and kappa light constant regions
For B1, the OD450 [1] was 3.15 OD, the OD450 [2] was 0.23 OD and the OD450 [3] was 1.97 OD. For the same binder, the OD450 [4] was 0.91 OD, the OD450 [5] was 0.05 OD and the OD450 [6] was 2.75 OD. The OD450 [7] was 0.1 OD and the OD450 [8] was 3.15 OD.

B2: S009-F8-12.13 (antibody, human IgG1, kappa, V domains shown)
VH: QVQLQQPGAELVKPGASVKLSCKASGYTFTSYWMHWVKQRPGQGLEWIGMIHPNSGSTNYNEKFKSKATLTVDKSSSTAYMQLSSLTSEDSAVYYCARRTPIITLVGHWYFDVWGTGTTVTVSS
VL: B1 VL with Q8H, I14S, N28D, S50W, N53T, Y55H, M78V, G100A, I106L
notes: as for B1
With B2 the OD450 [1] was 2.53 OD, the OD450 [2] was 0.49 OD and the OD450 [3] was 2.22 OD. It also gave an OD450 [4] of 1.26 OD, an OD450 [5] of 0.05 OD and an OD450 [6] of 2.42 OD. It also gave an OD450 [7] of 0.32 OD and an OD450 [8] of 2.94 OD.

B3: S009-F8-13.8 (antibody, human IgG1, kappa, V domains shown)
VH: EFQLQQSGPELVKPGASVKISCKASGYSFTDYNMNWVKQTNGKSLEWIGIINPNYGTSSYNQKFKGKATLTVDQSSSTAYMQLNSLTSEDSAVYYCARVGRDNSGFDYWGQGTTLTVSS
VL: QIVLTQSPAIMSASPGEKVTMTCSASSSVSYMYWYQQKPGSSPRLLIYDTSNLASGVPVRFSGSGSGTSYSLTISRMEAEDAATYYCQQWSSYPPTFGSGTELEIKR
notes: as for B1
In the case of B3, the OD450 [1] is reported as 2.34 OD, the OD450 [2] is reported as 0.07 OD and the OD450 [3] is reported as 1.18 OD. For the same binder, the OD450 [4] was 0.24 OD, the OD450 [5] was 0.05 OD and the OD450 [6] was 2.05 OD. For the same binder, the OD450 [7] was 0.05 OD and the OD450 [8] was 2.69 OD.

B4: S009-F8-15.19 (antibody, human IgG1, kappa, V domains shown)
VH: EFQLQQSGPELVKPGASVKISCKASGYSFTDYNMNWVKQSNGKSLEWIGIINPYYGTTSNNQNFKGKATLTVDQSSSTAYMQLNSLTSDDSAVYYCARWLRRDAMDYWGQGTSVTVSS
VL: DIVMTPSHKFMSTSVGDRVSIACKASQDVGSSVAWYQQKPGQSPKLLIYWTSTRHTGVPDRFTGSGSGTDFTLTISNVQSEDLADYFCQQYSSYPWTFGGGTKLEIKR
notes: as for B1
For B4, the OD450 [1] was 2.47 OD, the OD450 [2] was 0.08 OD and the OD450 [3] was 1.11 OD. It also gave an OD450 [4] of 0.24 OD, an OD450 [5] of 0.05 OD and an OD450 [6] of 2.23 OD. The OD450 [7] was 0.05 OD and the OD450 [8] was 2.64 OD.

B5: S009-F8-18.9 (antibody, human IgG1, kappa, V domains shown)
VH: EFQLQQSGPELVKPGASVKISCKASGYSFTDYNMNWVKQSNGKSLEWIGIINPNYGTTSYNQKFKGRATLTVDQSSSTAYVQLNSLTSEDSAVYYCARGGYDNEAMDYWGQGTSVTVSS
VL: QIVLTQSPAIMSASPGEKVTMTCSASSSVSYMHWYQQKSGTSPKRWIYDTSKLASGVPARFSGSGSGTSYSLTISSMEAEDAATYYCQQWSSNPPTFGAGTKLELKR
notes: as for B1
With B5 the OD450 [1] was 2.39 OD, the OD450 [2] was 0.15 OD and the OD450 [3] was 1.93 OD. For the same binder, the OD450 [4] was 0.71 OD, the OD450 [5] was 0.05 OD and the OD450 [6] was 2.29 OD. It also gave an OD450 [7] of 0.06 OD and an OD450 [8] of 2.42 OD.

B6: S009-F8-19.21 (antibody, human IgG1, kappa, V domains shown)
VH: B5 VH with A24T, I50V, S59G, R67K, V81M, N103G, Q111H
VL: B5 VL with S30N, N93Y, A99G, L105I
notes: as for B1
B6 showed an OD450 [1] of 2.32 OD, an OD450 [2] of 0.1 OD and an OD450 [3] of 1.61 OD. For the same binder, the OD450 [4] was 0.4 OD, the OD450 [5] was 0.06 OD and the OD450 [6] was 2.05 OD. For the same binder, the OD450 [7] was 0.06 OD and the OD450 [8] was 2.37 OD.

B7: S009-F8-22.23 (antibody, human IgG1, kappa, V domains shown)
VH: QVQLKQSGPGLVQPSQSLSITCTVSGFSLFSYGVHWVRQSPGKGLEWLGVIWSGGSTDYNAAFISRLSISKDNSKSQVFFKMNSLQADDTAMYYCARNGGSMITTLYYAMDYWGQGTSVTVSS
VL: DVVMTQTPLSLPVSLGDQASISCRSSQSLVHSYGNTYLHWYLQKPGQSPKLLIYKVSNRFSGVPDRFSGSGSGTDFTLKISRVEAEDLGVYFCSQSTHIPFTFGGGTKLEIKR
notes: as for B1
For B7, the OD450 [1] was 2.88 OD, the OD450 [2] was 0.44 OD and the OD450 [3] was 1.71 OD. For the same binder, the OD450 [4] was 0.92 OD, the OD450 [5] was 0.04 OD and the OD450 [6] was 2.49 OD. It also gave an OD450 [7] of 0.29 OD and an OD450 [8] of 2.9 OD.
